The numbers were not newly measured in PMC12759081, which cites them from elsewhere.

For the data set, the target named is PDS5B (Homo sapiens) (UniProt Q9NTI5). The experiment in a line: ITC. For orientation: Isothermal titration calorimetry measures the heat released or taken up as one component is titrated into another.

pKd: −log10 of the molar value.

Chain of Wapl (Q7Z5K2 whole entry): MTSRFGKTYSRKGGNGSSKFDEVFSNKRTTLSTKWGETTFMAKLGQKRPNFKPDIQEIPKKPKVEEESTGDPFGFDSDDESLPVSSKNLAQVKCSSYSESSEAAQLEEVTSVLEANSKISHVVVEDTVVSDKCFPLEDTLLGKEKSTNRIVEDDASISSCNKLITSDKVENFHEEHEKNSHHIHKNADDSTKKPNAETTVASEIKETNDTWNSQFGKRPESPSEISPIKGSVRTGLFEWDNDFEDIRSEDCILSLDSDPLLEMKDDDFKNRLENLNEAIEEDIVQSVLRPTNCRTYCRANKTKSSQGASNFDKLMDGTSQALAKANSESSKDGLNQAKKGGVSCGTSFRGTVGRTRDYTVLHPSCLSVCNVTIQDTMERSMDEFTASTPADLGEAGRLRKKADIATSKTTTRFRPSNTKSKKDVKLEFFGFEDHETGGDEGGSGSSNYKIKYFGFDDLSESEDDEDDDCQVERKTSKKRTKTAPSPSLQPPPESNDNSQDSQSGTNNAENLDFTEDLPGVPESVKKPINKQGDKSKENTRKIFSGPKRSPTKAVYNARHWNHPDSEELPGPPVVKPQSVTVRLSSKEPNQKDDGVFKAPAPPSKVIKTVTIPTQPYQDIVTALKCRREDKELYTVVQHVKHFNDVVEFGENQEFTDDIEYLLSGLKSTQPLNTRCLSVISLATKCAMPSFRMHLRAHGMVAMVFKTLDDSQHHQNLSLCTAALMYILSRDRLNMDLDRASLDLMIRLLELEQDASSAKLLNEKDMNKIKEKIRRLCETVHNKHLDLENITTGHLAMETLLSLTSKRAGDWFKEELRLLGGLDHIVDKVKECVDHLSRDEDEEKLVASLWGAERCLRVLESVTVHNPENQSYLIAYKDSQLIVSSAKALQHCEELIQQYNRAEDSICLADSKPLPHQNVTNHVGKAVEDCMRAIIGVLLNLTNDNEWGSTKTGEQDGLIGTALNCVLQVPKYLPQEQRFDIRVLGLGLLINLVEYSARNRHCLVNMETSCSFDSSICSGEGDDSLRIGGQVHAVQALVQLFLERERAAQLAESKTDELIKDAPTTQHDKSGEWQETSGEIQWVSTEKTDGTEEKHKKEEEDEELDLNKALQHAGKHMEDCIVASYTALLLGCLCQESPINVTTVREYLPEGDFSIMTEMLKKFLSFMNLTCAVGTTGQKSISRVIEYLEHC
Chain of PDS5B (Homo sapiens) (Q9NTI5 whole entry): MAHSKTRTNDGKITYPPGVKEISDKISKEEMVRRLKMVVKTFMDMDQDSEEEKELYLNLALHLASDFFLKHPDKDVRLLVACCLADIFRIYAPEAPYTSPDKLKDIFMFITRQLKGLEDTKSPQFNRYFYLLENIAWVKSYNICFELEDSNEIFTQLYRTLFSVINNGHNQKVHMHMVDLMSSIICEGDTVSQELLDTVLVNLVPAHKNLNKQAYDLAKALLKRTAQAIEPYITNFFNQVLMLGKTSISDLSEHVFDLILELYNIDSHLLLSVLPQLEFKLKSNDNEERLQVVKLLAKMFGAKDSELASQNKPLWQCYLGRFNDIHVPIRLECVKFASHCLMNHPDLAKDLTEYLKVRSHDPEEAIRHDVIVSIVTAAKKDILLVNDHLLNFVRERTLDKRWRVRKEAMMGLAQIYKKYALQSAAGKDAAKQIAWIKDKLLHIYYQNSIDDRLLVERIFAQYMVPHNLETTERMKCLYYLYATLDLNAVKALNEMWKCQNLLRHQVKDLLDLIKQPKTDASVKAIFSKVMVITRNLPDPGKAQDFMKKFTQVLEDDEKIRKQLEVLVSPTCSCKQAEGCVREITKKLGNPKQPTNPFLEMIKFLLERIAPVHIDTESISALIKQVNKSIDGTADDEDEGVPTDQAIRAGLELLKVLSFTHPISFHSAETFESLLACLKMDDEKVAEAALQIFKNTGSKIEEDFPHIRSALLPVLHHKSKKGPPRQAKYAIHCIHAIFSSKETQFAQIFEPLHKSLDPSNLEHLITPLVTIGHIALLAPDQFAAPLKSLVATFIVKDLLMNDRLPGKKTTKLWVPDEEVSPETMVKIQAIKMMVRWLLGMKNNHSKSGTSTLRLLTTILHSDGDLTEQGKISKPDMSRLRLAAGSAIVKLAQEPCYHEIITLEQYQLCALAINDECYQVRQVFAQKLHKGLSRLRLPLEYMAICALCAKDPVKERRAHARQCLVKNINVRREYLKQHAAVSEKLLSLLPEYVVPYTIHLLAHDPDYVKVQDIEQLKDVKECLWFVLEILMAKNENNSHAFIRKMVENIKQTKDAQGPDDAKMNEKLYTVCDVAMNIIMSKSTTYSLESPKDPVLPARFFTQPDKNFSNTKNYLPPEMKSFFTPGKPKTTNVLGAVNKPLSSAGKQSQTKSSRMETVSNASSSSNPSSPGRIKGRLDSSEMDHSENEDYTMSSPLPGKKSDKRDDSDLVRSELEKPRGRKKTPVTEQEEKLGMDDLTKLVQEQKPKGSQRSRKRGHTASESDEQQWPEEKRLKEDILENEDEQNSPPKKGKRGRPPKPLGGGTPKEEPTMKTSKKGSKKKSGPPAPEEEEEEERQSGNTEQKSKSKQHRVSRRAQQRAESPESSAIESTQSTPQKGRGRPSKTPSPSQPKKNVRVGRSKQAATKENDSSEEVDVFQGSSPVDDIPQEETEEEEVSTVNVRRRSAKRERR

In the case of Wapl (from UniProt Q7Z5K2), the pKd – broadly, the negative decadic logarithm of the Kd, by convention in mol/L – is 5.22.
